Biological target: the molecule itself
Assay: SEC

B1: Physcomitrella patens adenosine kinase 1 (PpADK1) (enzyme, UniProt O49923 1-343, looked up)
chain: MASEGVLLGMGNPLLDISCVVDDAFLEKYGLTLNNAILAEDKHLPMYKELAANPDVEYIAGGATQNTIRIAQWMLGESNATSYFGCVGKDEYGDRMFKLASEGGVNIRYDVDEDLPTGTCGVLVVKGERSLVANLSAANKYKIDHLKKPENWAFVEKAKYIYSAGFFLTVSPESMMTVAKHAAETGKYYMINLAAPFICQFFKDPLMELFPYVDFIFGNESEARAFAQVQGWETEDTKVIAVKLAALPKAGGTHKRVAVITQGTDPTIVAEDGKVTEFPVTPIPKEKLVDTNAAGDSFVGGFLSQLVLGKDIAQCVRAGNYAASVIIQRSGCTFPSKPSFESQ
stoichiometry N: 2

— publication doi:10.1101/2024.12.05.626941 (bioRxiv, 2024)
